How the values were obtained:
[1] = target: N-terminally Strep-tagII tagged wild-type QstR (Vibrio cholerae); experiment: SEC; analytical SEC, Superdex 200 10/300 GL; 100 mM Tris-HCl pH 8.0, 300 mM NaCl, 1 mM EDTA; 0.5 ml/min; size estimated from a standard curve of protein standards
[2] = test system: H-NS (15 kDa) (Vibrio cholerae A1552 (A1552-TntfoX)); experiment: DNA affinity pull-down, LC-MS/MS
[3] = test system: VCA0767 (TetR family transcriptional regulator, 29 kDa) (Vibrio cholerae A1552 (A1552-TntfoX)); experiment: DNA affinity pull-down, LC-MS/MS
[4] = test system: HupA, HU-alpha (9 kDa) (Vibrio cholerae A1552 (A1552-TntfoX)); experiment: DNA affinity pull-down, LC-MS/MS
[5] = test system: NdpA nucleoid-associated protein (38 kDa) (Vibrio cholerae A1552 (A1552-TntfoX)); experiment: DNA affinity pull-down, LC-MS/MS

Question: How did the stoichiometry N [1] turn out when “N-terminally Strep-tagII tagged wild-type QstR (natural protein)” was run?
Answer: The stoichiometry N was 2.

Question: How did the binding signal (total spectra) [2] turn out when comEA pull-down probe was run?
Answer: Its binding signal (total spectra) is 35.

Question: And the binding signal (total spectra) [3]?
Answer: The binding signal (total spectra) was 5.

Question: What about the binding signal (total spectra) [4] of the same substance?
Answer: The binding signal (total spectra) was 8.

Question: And the binding signal (total spectra) [5]?
Answer: The binding signal (total spectra) was 8.

Question: What does the source list for gyrA pull-down probe?
Answer: binding signal (total spectra) [2]: 16; binding signal (total spectra) [3]: 0; binding signal (total spectra) [4]: 8; binding signal (total spectra) [5]: 6

Question: With qstR pull-down probe as the substance, how does the binding signal (total spectra) [2] read?
Answer: The binding signal (total spectra) was 185.

Question: What about the binding signal (total spectra) [3] of the same substance?
Answer: Its binding signal (total spectra) is 0.

Question: And the binding signal (total spectra) [4]?
Answer: The binding signal (total spectra) was 26.

Question: What about the binding signal (total spectra) [5] of the same substance?
Answer: The binding signal (total spectra) was 10.
